Test results from the supplement of paper PMC9112550, “Optimization of the antimicrobial peptide Bac7 by deep mutational scanning” (BMC Biology, 2022).

The sequences below were run on Escherichia coli TOP10 (assay: shrunken log2 fold change of peptide-encoding DNA abundance (4.5 h post-induction vs induction); higher = less antimicrobial activity (less host growth inhibition)). Settings: time post-induction: 4.5 h; library: site-saturation at positions 5, 18, 19, 20.
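Note: peptides expressed intracellularly from a pBAD plasmid library in pooled LB shake-flask culture, induced with 0.3% L-arabinose, DNA abundance read by NGS, three biological replicates, DESeq2 with apeglm shrinkage.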

Q: How did the “shrunken log2 fold change” value turn out when RRIRHRPPRLPRPRPRPDTPPRP was run?
A: -0.0405

Q: With RRIRLRPPRLPRPRPRPNNSPRP as the sequence, how does the “shrunken log2 fold change” value read?
A: -0.952

Q: With RRIRQRPPRLPRPRPRPPEEPRP as the sequence, how does the “shrunken log2 fold change” value read?
A: -0.00674

Q: RRIRGRPPRLPRPRPRPPSYPRP was tested. Which “shrunken log2 fold change” value did it give?
A: 0.326

Q: Which “shrunken log2 fold change” value does the source give for RRIRHRPPRLPRPRPRPCLEPRP here?
A: -0.0502

Q: RRIRGRPPRLPRPRPRPCMLPRP was tested. Which “shrunken log2 fold change” value did it give?
A: 0.336

Q: RRIRKRPPRLPRPRPRPVIGPRP was tested. Which “shrunken log2 fold change” value did it give?
A: 0.233

Q: With RRIRDRPPRLPRPRPRPPGRPRP as the sequence, how does the “shrunken log2 fold change” value read?
A: 0.104

Q: For RRIRDRPPRLPRPRPRPHDMPRP, which “shrunken log2 fold change” value is on record?
A: -0.0819

Q: With RRIRKRPPRLPRPRPRPTVEPRP as the sequence, how does the “shrunken log2 fold change” value read?
A: 0.377

Q: RRIRSRPPRLPRPRPRPNLCPRP was tested. Which “shrunken log2 fold change” value did it give?
A: -0.0929

Q: With RRIRWRPPRLPRPRPRPHGIPRP as the sequence, how does the “shrunken log2 fold change” value read?
A: 0.00741

Q: RRIRERPPRLPRPRPRPHIKPRP was tested. Which “shrunken log2 fold change” value did it give?
A: -0.932

Q: With RRIRGRPPRLPRPRPRPSELPRP as the sequence, how does the “shrunken log2 fold change” value read?
A: 0.404

Q: RRIRHRPPRLPRPRPRPKWIPRP was tested. Which “shrunken log2 fold change” value did it give?
A: -0.779

Q: For RRIRHRPPRLPRPRPRPYLCPRP, which “shrunken log2 fold change” value is on record?
A: -0.0059

Q: RRIRRRPPRLPRPRPRPMGFPRP was tested. Which “shrunken log2 fold change” value did it give?
A: 0.317

Q: With RRIRARPPRLPRPRPRPVQFPRP as the sequence, how does the “shrunken log2 fold change” value read?
A: -0.0854

Q: How did the “shrunken log2 fold change” value turn out when RRIRCRPPRLPRPRPRPIWFPRP was run?
A: 0.21

Q: How did the “shrunken log2 fold change” value turn out when RRIRQRPPRLPRPRPRPPSNPRP was run?
A: -0.481

Q: How did the “shrunken log2 fold change” value turn out when RRIRARPPRLPRPRPRPKCWPRP was run?
A: 0.622

Q: How did the “shrunken log2 fold change” value turn out when RRIRMRPPRLPRPRPRPRMGPRP was run?
A: 1.11

Q: RRIRGRPPRLPRPRPRPACVPRP was tested. Which “shrunken log2 fold change” value did it give?
A: 0.81

Q: For RRIRIRPPRLPRPRPRPCYHPRP, which “shrunken log2 fold change” value is on record?
A: -0.265

Q: For RRIRNRPPRLPRPRPRPKPWPRP, which “shrunken log2 fold change” value is on record?
A: 0.217

Q: Which “shrunken log2 fold change” value does the source give for RRIRERPPRLPRPRPRPGYKPRP here?
A: -0.11

Q: With RRIRSRPPRLPRPRPRPTICPRP as the sequence, how does the “shrunken log2 fold change” value read?
A: -0.126

Q: Which “shrunken log2 fold change” value does the source give for RRIRIRPPRLPRPRPRPLPMPRP here?
A: -0.204

Q: For RRIRKRPPRLPRPRPRPVLWPRP, which “shrunken log2 fold change” value is on record?
A: 1.78

Q: For RRIRHRPPRLPRPRPRPCETPRP, which “shrunken log2 fold change” value is on record?
A: -0.332

Q: RRIRCRPPRLPRPRPRPHWMPRP was tested. Which “shrunken log2 fold change” value did it give?
A: -0.371

Q: RRIRVRPPRLPRPRPRPWIGPRP was tested. Which “shrunken log2 fold change” value did it give?
A: -0.166

Q: For RRIRERPPRLPRPRPRPGHLPRP, which “shrunken log2 fold change” value is on record?
A: -0.0138

Q: For RRIRPRPPRLPRPRPRPLRGPRP, which “shrunken log2 fold change” value is on record?
A: 0.792

Q: Which “shrunken log2 fold change” value does the source give for RRIRARPPRLPRPRPRPETTPRP here?
A: 1.61

Q: RRIRQRPPRLPRPRPRPEIRPRP was tested. Which “shrunken log2 fold change” value did it give?
A: 0.0114

Q: With RRIRQRPPRLPRPRPRPHRRPRP as the sequence, how does the “shrunken log2 fold change” value read?
A: -0.185

Q: For RRIRQRPPRLPRPRPRPNSTPRP, which “shrunken log2 fold change” value is on record?
A: -0.642

Q: Which “shrunken log2 fold change” value does the source give for RRIRARPPRLPRPRPRPVFEPRP here?
A: 0.41

Q: With RRIRSRPPRLPRPRPRPSAHPRP as the sequence, how does the “shrunken log2 fold change” value read?
A: 0.0639

Q: RRIRGRPPRLPRPRPRPNPPPRP was tested. Which “shrunken log2 fold change” value did it give?
A: 0.336

Q: Which “shrunken log2 fold change” value does the source give for RRIRFRPPRLPRPRPRPPWAPRP here?
A: 0.267

Q: With RRIRGRPPRLPRPRPRPEVFPRP as the sequence, how does the “shrunken log2 fold change” value read?
A: 1.38

Q: With RRIRYRPPRLPRPRPRPMANPRP as the sequence, how does the “shrunken log2 fold change” value read?
A: -0.223

Q: RRIRPRPPRLPRPRPRPCGPPRP was tested. Which “shrunken log2 fold change” value did it give?
A: 0.189

Q: For RRIRFRPPRLPRPRPRPVQQPRP, which “shrunken log2 fold change” value is on record?
A: 0.355

Q: For RRIRMRPPRLPRPRPRPWHDPRP, which “shrunken log2 fold change” value is on record?
A: 0.162

Q: RRIRHRPPRLPRPRPRPRVYPRP was tested. Which “shrunken log2 fold change” value did it give?
A: -0.0307

Q: RRIRWRPPRLPRPRPRPQMGPRP was tested. Which “shrunken log2 fold change” value did it give?
A: -0.124

Q: With RRIRTRPPRLPRPRPRPFTPPRP as the sequence, how does the “shrunken log2 fold change” value read?
A: -0.0472

Q: Which “shrunken log2 fold change” value does the source give for RRIRVRPPRLPRPRPRPNIKPRP here?
A: -0.497

Q: With RRIRNRPPRLPRPRPRPTILPRP as the sequence, how does the “shrunken log2 fold change” value read?
A: -0.742

Q: RRIRQRPPRLPRPRPRPLYEPRP was tested. Which “shrunken log2 fold change” value did it give?
A: -0.671

Q: With RRIRNRPPRLPRPRPRPYFMPRP as the sequence, how does the “shrunken log2 fold change” value read?
A: -1.09

Q: Which “shrunken log2 fold change” value does the source give for RRIRWRPPRLPRPRPRPPCEPRP here?
A: 0.379

Q: RRIRKRPPRLPRPRPRPHMCPRP was tested. Which “shrunken log2 fold change” value did it give?
A: -0.066

Q: Which “shrunken log2 fold change” value does the source give for RRIRTRPPRLPRPRPRPRVEPRP here?
A: 0.073

Q: For RRIRLRPPRLPRPRPRPVQTPRP, which “shrunken log2 fold change” value is on record?
A: 0.102

Q: With RRIRCRPPRLPRPRPRPQQFPRP as the sequence, how does the “shrunken log2 fold change” value read?
A: -0.217

Q: With RRIRIRPPRLPRPRPRPQDIPRP as the sequence, how does the “shrunken log2 fold change” value read?
A: -0.461

Q: Which “shrunken log2 fold change” value does the source give for RRIRHRPPRLPRPRPRPSAPPRP here?
A: -0.239

Q: RRIRQRPPRLPRPRPRPDGSPRP was tested. Which “shrunken log2 fold change” value did it give?
A: -0.0176

Q: RRIRSRPPRLPRPRPRPRSMPRP was tested. Which “shrunken log2 fold change” value did it give?
A: -0.0644

Q: Which “shrunken log2 fold change” value does the source give for RRIRRRPPRLPRPRPRPGPWPRP here?
A: 0.523

Q: For RRIRMRPPRLPRPRPRPKVGPRP, which “shrunken log2 fold change” value is on record?
A: 1.27

Q: For RRIRARPPRLPRPRPRPMVWPRP, which “shrunken log2 fold change” value is on record?
A: 1.07

Q: RRIRIRPPRLPRPRPRPQDPPRP was tested. Which “shrunken log2 fold change” value did it give?
A: -0.235

Q: RRIRFRPPRLPRPRPRPYWRPRP was tested. Which “shrunken log2 fold change” value did it give?
A: -0.0769

Q: For RRIRLRPPRLPRPRPRPRCMPRP, which “shrunken log2 fold change” value is on record?
A: -0.0665

Q: How did the “shrunken log2 fold change” value turn out when RRIRCRPPRLPRPRPRPWQQPRP was run?
A: -0.000303

Q: With RRIRDRPPRLPRPRPRPAYVPRP as the sequence, how does the “shrunken log2 fold change” value read?
A: -0.00133

Q: How did the “shrunken log2 fold change” value turn out when RRIRRRPPRLPRPRPRPRPVPRP was run?
A: 0.882

Q: For RRIRYRPPRLPRPRPRPMGWPRP, which “shrunken log2 fold change” value is on record?
A: -0.134

Q: For RRIRHRPPRLPRPRPRPKFPPRP, which “shrunken log2 fold change” value is on record?
A: 0.442

Q: For RRIRHRPPRLPRPRPRPDCKPRP, which “shrunken log2 fold change” value is on record?
A: -0.148

Q: RRIRQRPPRLPRPRPRPTLKPRP was tested. Which “shrunken log2 fold change” value did it give?
A: -0.0628

Q: RRIRQRPPRLPRPRPRPFDWPRP was tested. Which “shrunken log2 fold change” value did it give?
A: -0.0369

Q: Which “shrunken log2 fold change” value does the source give for RRIRDRPPRLPRPRPRPKFAPRP here?
A: -0.0673

Q: With RRIRERPPRLPRPRPRPARWPRP as the sequence, how does the “shrunken log2 fold change” value read?
A: 0.592

Q: For RRIRFRPPRLPRPRPRPKIDPRP, which “shrunken log2 fold change” value is on record?
A: 0.00783

Q: With RRIRWRPPRLPRPRPRPYDVPRP as the sequence, how does the “shrunken log2 fold change” value read?
A: -0.0559

Q: Which “shrunken log2 fold change” value does the source give for RRIRNRPPRLPRPRPRPDEIPRP here?
A: -0.043

Q: RRIRNRPPRLPRPRPRPFFCPRP was tested. Which “shrunken log2 fold change” value did it give?
A: 0.118

Q: How did the “shrunken log2 fold change” value turn out when RRIRFRPPRLPRPRPRPMLCPRP was run?
A: -0.103

Q: How did the “shrunken log2 fold change” value turn out when RRIRDRPPRLPRPRPRPPCAPRP was run?
A: 0.371

Q: Which “shrunken log2 fold change” value does the source give for RRIRVRPPRLPRPRPRPFKMPRP here?
A: -0.398

Q: RRIRKRPPRLPRPRPRPDIPPRP was tested. Which “shrunken log2 fold change” value did it give?
A: -0.109

Q: How did the “shrunken log2 fold change” value turn out when RRIRIRPPRLPRPRPRPCTHPRP was run?
A: -0.791

Q: With RRIRGRPPRLPRPRPRPECFPRP as the sequence, how does the “shrunken log2 fold change” value read?
A: 1.92

Q: How did the “shrunken log2 fold change” value turn out when RRIRVRPPRLPRPRPRPIVPPRP was run?
A: -0.349

Q: How did the “shrunken log2 fold change” value turn out when RRIRYRPPRLPRPRPRPPRTPRP was run?
A: -0.0112

Q: With RRIRARPPRLPRPRPRPSTEPRP as the sequence, how does the “shrunken log2 fold change” value read?
A: 0.396

Q: With RRIRVRPPRLPRPRPRPDTKPRP as the sequence, how does the “shrunken log2 fold change” value read?
A: -0.26

Q: With RRIRSRPPRLPRPRPRPLYWPRP as the sequence, how does the “shrunken log2 fold change” value read?
A: -0.154

Q: For RRIRSRPPRLPRPRPRPCTCPRP, which “shrunken log2 fold change” value is on record?
A: -0.177

Q: With RRIRCRPPRLPRPRPRPVVSPRP as the sequence, how does the “shrunken log2 fold change” value read?
A: -0.229

Q: With RRIRVRPPRLPRPRPRPDPIPRP as the sequence, how does the “shrunken log2 fold change” value read?
A: -0.00485

Q: For RRIRFRPPRLPRPRPRPLKPPRP, which “shrunken log2 fold change” value is on record?
A: -0.178

Q: Which “shrunken log2 fold change” value does the source give for RRIRGRPPRLPRPRPRPANYPRP here?
A: 0.0041

Q: Which “shrunken log2 fold change” value does the source give for RRIRLRPPRLPRPRPRPVRFPRP here?
A: 1.26

Q: RRIRIRPPRLPRPRPRPMHWPRP was tested. Which “shrunken log2 fold change” value did it give?
A: -0.194

Q: For RRIRYRPPRLPRPRPRPCFMPRP, which “shrunken log2 fold change” value is on record?
A: -0.675

Q: Which “shrunken log2 fold change” value does the source give for RRIRFRPPRLPRPRPRPLGHPRP here?
A: -0.0599

Q: For RRIRHRPPRLPRPRPRPGEYPRP, which “shrunken log2 fold change” value is on record?
A: -0.219

Q: With RRIRLRPPRLPRPRPRPEFRPRP as the sequence, how does the “shrunken log2 fold change” value read?
A: 0.126

Q: With RRIRDRPPRLPRPRPRPLWKPRP as the sequence, how does the “shrunken log2 fold change” value read?
A: 0.0179

Q: For RRIRPRPPRLPRPRPRPLWSPRP, which “shrunken log2 fold change” value is on record?
A: -0.0489

Q: With RRIRCRPPRLPRPRPRPVNNPRP as the sequence, how does the “shrunken log2 fold change” value read?
A: -0.327

Q: With RRIRLRPPRLPRPRPRPIRKPRP as the sequence, how does the “shrunken log2 fold change” value read?
A: -0.14
